This is an account of results in the Human Domainome abundance scans (Beltran et al. 2025).

± gives the uncertainty stated by the source.

Sequences and labels used below:
B1: E3 ubiquitin-protein ligase NEDD4, residues 836 to 881; numbered along this chain, P46934 (parent)
chain: EIEQGFLPKGWEVRHAPNGRPFFIDHNTKTTTWEDPRLKIPAHLRG

Variants of B1 are the subject of the series. Nature of the series: abundance fitness (aPCA) (normalised: wild type 0, dead -1); higher = more abundant; growth selection in yeast, the domain comes from the species named. To be noted: Homo sapiens.
K39L: the abundance fitness was -0.144 ± 0.046.

In the case of K39T, the abundance fitness is -0.023 ± 0.064.

Consider K39S, for which the abundance fitness is -0.098 ± 0.037.

On to K39V, for which the abundance fitness is -0.201 ± 0.045.

Regarding K39R, the abundance fitness turned out to be 0.003 ± 0.051.

K39W: the abundance fitness is -0.298 ± 0.038.

On to K39M, for which the abundance fitness is -0.101 ± 0.065.

With K39Y, the abundance fitness is -0.319 ± 0.093.

Take K39I: the abundance fitness was -0.297 ± 0.038.

Turning to K39Q, the abundance fitness was -0.372 ± 0.092.

Turning to L44G, the abundance fitness came to 0.056 ± 0.032.

On to L44D, for which the abundance fitness is 0.116 ± 0.065.

Turning to L44I, the abundance fitness is -0.053 ± 0.045.

Regarding L44N, the abundance fitness was -0.34 ± 0.089.

Turning to L44Q, the abundance fitness was found to be 0.033 ± 0.063.

Regarding L44F, the abundance fitness is -0.423 ± 0.069.

L44W: the abundance fitness was -0.188 ± 0.051.

Regarding L44E, the abundance fitness is -0.07 ± 0.049.

Regarding L44M, the abundance fitness is -0.002 ± 0.081.

With L44Y, the abundance fitness was -0.172 ± 0.039.

As for L44S, the abundance fitness was -0.001 ± 0.056.

Take L44K: the abundance fitness was -0.154 ± 0.072.

As for L44T, the abundance fitness was -0.027 ± 0.033.

As to L44R, the abundance fitness is -0.221 ± 0.042.

With L44H, the abundance fitness was 0.116 ± 0.069.

On to L44C, for which the abundance fitness turned out to be 0.004 ± 0.041.

Take L44P: the abundance fitness turned out to be 0.119 ± 0.068.

For the variant L44A, the abundance fitness is 0.08 ± 0.047.

Take G46D: the abundance fitness was -0.088 ± 0.16.

Consider G46A, for which the abundance fitness is -0.249 ± 0.26.

Regarding G46S, the abundance fitness was -0.002 ± 0.094.

R45P: the abundance fitness came to 0.006 ± 0.058.

As to R45I, the abundance fitness was -0.454 ± 0.1.

On to R45K, for which the abundance fitness was -0.016 ± 0.059.

As for R45E, the abundance fitness came out at 0.153 ± 0.069.

For R45V, the abundance fitness is -0.055 ± 0.049.

Consider R45Y, for which the abundance fitness is -0.072 ± 0.041.

R45F: the abundance fitness was -0.174 ± 0.079.

With R45D, the abundance fitness amounted to 0.104 ± 0.037.

As to R45N, the abundance fitness is 0.017 ± 0.037.

Consider R45L, for which the abundance fitness is -0.182 ± 0.045.

Regarding R45G, the abundance fitness was 0.005 ± 0.041.

Turning to R45S, the abundance fitness was -0.131 ± 0.054.

As to R45Q, the abundance fitness was -0.11 ± 0.091.

Consider R45T, for which the abundance fitness was -0.074 ± 0.041.

For the variant R45W, the abundance fitness is -0.202 ± 0.078.

Take R45C: the abundance fitness was 0.019 ± 0.067.

On to R45A, for which the abundance fitness is -0.005 ± 0.061.

As for R45H, the abundance fitness amounted to 0.104 ± 0.076.

For the variant P41T, the abundance fitness was -0.158 ± 0.078.

P41L: the abundance fitness was -0.469 ± 0.05.

For P41M, the abundance fitness was -0.353 ± 0.062.

With P41K, the abundance fitness was -0.08 ± 0.066.

Consider P41F, for which the abundance fitness was -0.57 ± 0.15.

On to P41Q, for which the abundance fitness is -0.32 ± 0.087.

Take P41N: the abundance fitness worked out at 0.005 ± 0.049.

As for P41G, the abundance fitness is -0.423 ± 0.047.

In the case of P41W, the abundance fitness is -0.49 ± 0.084.

Take P41V: the abundance fitness is -0.141 ± 0.042.

P41S: the abundance fitness was -0.139 ± 0.064.

As for P41I, the abundance fitness worked out at 0.029 ± 0.082.

Take P41R: the abundance fitness is -0.117 ± 0.041.

As for P41E, the abundance fitness was -0.167 ± 0.069.

In the case of P41Y, the abundance fitness is -0.607 ± 0.14.

Take P41H: the abundance fitness is 0.051 ± 0.088.

Consider P41D, for which the abundance fitness is -0.16 ± 0.065.

Take P41A: the abundance fitness was -0.078 ± 0.033.

On to I40V, for which the abundance fitness is -0.007 ± 0.054.

I40W: the abundance fitness was -0.055 ± 0.045.

As to I40N, the abundance fitness was -0.154 ± 0.11.

Turning to I40G, the abundance fitness turned out to be 0.028 ± 0.036.

For the variant I40Q, the abundance fitness turned out to be 0.085 ± 0.072.

Consider I40S, for which the abundance fitness is 0.009 ± 0.056.

Turning to I40K, the abundance fitness was 0.095 ± 0.07.

For the variant I40R, the abundance fitness is -0.018 ± 0.058.

As for I40C, the abundance fitness is -0.343 ± 0.11.

For the variant I40F, the abundance fitness is -0.239 ± 0.062.

As for I40Y, the abundance fitness is -0.27 ± 0.063.

For I40H, the abundance fitness is -0.17 ± 0.084.

As to I40M, the abundance fitness is -0.026 ± 0.069.

Take I40E: the abundance fitness was -0.233 ± 0.1.

Consider I40T, for which the abundance fitness turned out to be 0.04 ± 0.072.

For I40A, the abundance fitness turned out to be 0.002 ± 0.043.

For the variant I40L, the abundance fitness is -0.042 ± 0.053.

In the case of I40P, the abundance fitness is -0.335 ± 0.15.

On to I40D, for which the abundance fitness was -0.193 ± 0.1.
